Source: patent CN113121686A (MABWELL SHANGHAI BIOTECHNOLOGY CO LTD, dated 2021)
Changes are numbered by the printed parent chain.

T1: PD-L2-hFc (human, UniProt Q9BQ51 20-220)
T1 construct: range 20-220; not shown: human Fc (hFc)
T1 sequence (looked up): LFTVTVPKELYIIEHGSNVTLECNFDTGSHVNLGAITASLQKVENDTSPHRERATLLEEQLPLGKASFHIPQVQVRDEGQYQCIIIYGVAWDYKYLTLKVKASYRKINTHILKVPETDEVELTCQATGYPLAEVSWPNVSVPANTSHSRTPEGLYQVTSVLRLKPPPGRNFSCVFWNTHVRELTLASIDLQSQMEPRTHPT

T2: B7H3-His (human, UniProt Q5ZPR3 29-239)
T2 construct: range 29-239; not shown: His tag
T2 sequence (looked up): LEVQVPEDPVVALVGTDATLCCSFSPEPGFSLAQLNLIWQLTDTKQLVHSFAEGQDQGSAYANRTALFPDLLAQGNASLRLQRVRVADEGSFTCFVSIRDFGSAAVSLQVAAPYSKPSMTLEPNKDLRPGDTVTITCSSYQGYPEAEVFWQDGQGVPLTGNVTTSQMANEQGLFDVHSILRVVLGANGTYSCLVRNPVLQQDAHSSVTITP

T3: CTLA4-His (human, UniProt P16410 36-162)
T3 construct: Bought protein; also called Cat:11159-H08H; not shown: His tag
T3 sequence (looked up): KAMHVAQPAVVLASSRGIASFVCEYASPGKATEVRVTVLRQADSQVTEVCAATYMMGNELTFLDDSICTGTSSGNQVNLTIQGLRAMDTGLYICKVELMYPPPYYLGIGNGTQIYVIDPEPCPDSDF

B1: H182-MUT4 (antibody, human IgG1, kappa, V domains shown)
VH: EVQLVQSGAEVKKPGATVKISCKVSGFNIKDIYMHWVQQAPGKGLEWMGRIDPANANTKYDPKFQDRVTITADTSTNTAYMELSSLRSEDTAVYYCASGQLGPLGFDYWGQGTTVTVSS
VL: DIQMTQSPSSLSASVGDRVTITCRASQDISNYLNWYQQKPGKAPKLLLYYTSRLHSGVPSRFSGSGSGTDYTLTISSLQPEDFATYFCQQGAGRPYTFGGGTKVEIKR
notes: also called h182-LCDR3-4+h182-HCDR2-3
B2: 嵌合抗体Ch182 (antibody, human IgG1, V domains shown)
VH: EVQLQQSGAELVKPGASVKLSCTVSGFNIKDIYMHWLKQRPEQGLEWIGRIDPANGNTKYDPKFQDKATMIADTSSNTAYLQLSSLTSEDTAVYYCASGQLGPLGFDYWGQGTTLTVSS
VL: DIQMTQTTSSLSASLGDRVTISCRASQDISNYLNWYQQKPDGTVKLLIYYTSRLHSGVPSRFSGSGSGTDYSLTISNLEQEDIATYFCQQGNTLPYTFGGGTKLEIK
B3: 182-1 (antibody, V domains shown)
VH: B1 VH with A56G, N77D, S98T
VL: DIQMTQTTSSLSASLGDRVTISCRASQDISNYLNWYQQKPDGTVKLLIYYTSRLHSGVPSRFSGSGSGTDYSLTISNLEQEDIATYFCQQGNTLPYTFGGGTKLEIKR
B4: 182-2 (antibody, V domains shown)
VH: B1 VH with A56G
VL: B3 VL
B5: 182-3 (antibody, human IgG1, V domains shown)
VH: B2 VH
VL: B1 VL with F87Y, A92N, G93T, R94L
notes: also called h182L1 + Ch182H
B6: 182-6 (antibody, human IgG1, V domains shown)
VH: B2 VH
VL: B1 VL with A92N, G93T, R94L
notes: also called h182L2 + Ch182H
B7: 182-4 (antibody, V domains shown)
VH: B1 VH with A56G, N77D, S98T
VL: B1 VL with F87Y, A92N, G93T, R94L
B8: 182-5 (antibody, V domains shown)
VH: B1 VH with A56G
VL: B1 VL with F87Y, A92N, G93T, R94L
B9: 182-7 (antibody, V domains shown)
VH: B1 VH with A56G, N77D, S98T
VL: B1 VL with A92N, G93T, R94L
B10: h182 (antibody, V domains shown)
VH: B1 VH with A56G
VL: B1 VL with A92N, G93T, R94L
B11: 182鼠抗体 (antibody, V domains shown)
VH: B2 VH
VL: B2 VL
notes: Tested as hybridoma supernatant or as purified mouse antibody; also called m182

Legend:
人PD-L1全长(细胞表面表达) [1] = target: T4, 人PD-L1全长(细胞表面表达) (human, UniProt Q9NZQ7 19-290); test: cell-based or functional assay
人PD-L1全长(细胞表面表达) [2] = target: T4, 人PD-L1全长(细胞表面表达); test: flow cytometry (MFI) on CHO-PD-L1-CD3L cells, antibody titrated from 30 ug/mL
人PD-L1/mFc重组蛋白 = target: T5, 人PD-L1/mFc重组蛋白 (human, UniProt Q9NZQ7 19-238); test: competition ELISA; PD-1-hFc coated, PD-L1-mFc 1 ug/mL, antibody titrated from 4.5 ug/mL
T5 construct: range 19-238; not shown: mouse Fc (mFc)
T5 sequence (Q9NZQ7 19-238 limits assumed): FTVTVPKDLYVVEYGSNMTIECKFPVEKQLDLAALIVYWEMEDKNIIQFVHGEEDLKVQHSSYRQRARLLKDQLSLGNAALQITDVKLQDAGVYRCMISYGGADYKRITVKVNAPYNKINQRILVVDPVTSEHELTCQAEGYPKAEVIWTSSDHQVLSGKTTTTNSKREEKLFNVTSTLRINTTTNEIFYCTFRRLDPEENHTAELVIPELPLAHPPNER

人PD-L1-His重组蛋白 [3] = target: T6, 人PD-L1-His重组蛋白 (human, UniProt Q9NZQ7 19-238); test: BLI (Fortebio Octet QKe), antibody captured on AHC probe, human PD-L1-His 60 nM, 1:1 Langmuir fit
T6 construct: range 19-238; also called 人PD-L1胞外区结构域重组蛋白; 重组人PD-L1; not shown: His tag
T6 sequence (Q9NZQ7 19-238 limits assumed): as above

人PD-L1-His重组蛋白 [4] = target: T6, 人PD-L1-His重组蛋白; test: BLI (Fortebio Octet QKe), antibody captured on AHC probe, human PD-L1-His 100 nM, 1:1 Langmuir fit
人PD-L1-His重组蛋白 [5] = target: T6, 人PD-L1-His重组蛋白; test: BLI (Fortebio Octet QKe), antibody captured on AHC probe, human PD-L1-His 50 nM and 20 nM, 1:1 Langmuir fit
PD-L2-hFc = target: T1, PD-L2-hFc; test: ELISA; protein coated at 2 ug/mL
B7H3-His = target: T2, B7H3-His; test: ELISA; protein coated at 2 ug/mL
重组人CD28 = target: T7, 重组人CD28 (human, UniProt P10747 19-152); test: ELISA; protein coated at 2 ug/mL
T7 construct: Bought protein; also called Cat:11524-HCCH
T7 sequence (P10747 19-152 limits assumed): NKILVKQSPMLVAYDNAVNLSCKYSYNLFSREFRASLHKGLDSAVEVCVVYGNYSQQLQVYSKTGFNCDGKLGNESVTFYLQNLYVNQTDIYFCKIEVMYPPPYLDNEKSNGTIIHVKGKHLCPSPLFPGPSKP

CTLA4-His = target: T3, CTLA4-His; test: ELISA; protein coated at 2 ug/mL

Binder | Kd (人PD-L1-His重组蛋白 [4]) [nM] | further results
B1 |  | ADCC EC50 (MDA-MB-231 target cells, NK92 effector cells, calcein release) (人PD-L1全长(细胞表面表达) [1]): 0.96 ng/mL; EC50 (人PD-L1全长(细胞表面表达) [2]): 0.658 nM; IC50 (人PD-L1/mFc重组蛋白): 6.24 nM; Kd (人PD-L1-His重组蛋白 [3]): 0.465 nM
B2 | 2.14 | Kd (人PD-L1-His重组蛋白 [5]): ~2.02 nM
B3 | 5.82 | 
B4 | 1.93 | 
B5 | 4.77 | 
B6 | 4.64 | 
B7 | 8.19 | 
B8 | 3.43 | 
B9 | 5.68 | 
B10 | 3.64 | 
B11 |  | binding result (PD-L2-hFc): no binding (tested: 1ug/ml); binding result (B7H3-His): no binding (tested: 1ug/ml); binding result (重组人CD28): no binding (tested: 1ug/ml); binding result (CTLA4-His): no binding (tested: 1ug/ml)
